Data on 4 substances can be found in PMC8755526.

By stoichiometry N is commonly meant a count of units in the complex or per binding partner.

Test [1] deals with PLK1-T210E fused to CFP, YFP or mTurquoise 2 (human) (UniProt P53350). Briefly: FRET or BRET; FRET by confocal microscopy of fixed HEK293T cells co-transfected with YFP and mTurquoise constructs; 'FRET and co-localization analyzer' ImageJ plug-in.
Test [2] deals with PLK1 Polo-Box domain (Flag- or Myc-tagged) (human). Briefly: co-IP; lysates of cells co-expressing differently tagged PLK1 PBD incubated with increasing amounts of purified GST-Bora, then co-IP.
For test [3], the target named is full-length, wild-type PLK1 (Flag-, Myc- or V5-tagged) (human) (UniProt P53350). The test can be described thus: cross-linking; BS3 (20:1 crosslinker-protein) added to lysates of HEK293T cells for 30 min, quenched; IPs with anti-V5 and anti-Myc; SDS-PAGE and western blot with PLK1- and Bora-specific antibodies. Background: Immunoblotting shows a protein as a band on a membrane.

The target of test [4] is endogenous PLK1 of HeLa-PLK1–3xMyc cells (human (endogenous in HeLa)) (UniProt P53350). The test can be described thus: SEC; lysate of HeLa-PLK1–3xMyc cells synchronized in G2 with the CDK1 inhibitor RO3306; Superose 3.2/300, 50 mM Tris pH 7.5, 150 mM NaCl, 20 mM CHAPS, 1 mM DTT, 4 °C; fractions blotted. For orientation: In gel filtration, larger molecules generally elute earlier.

For the substance “PLK1-T210E fused to CFP, YFP or mTurquoise 2 (from UniProt P53350 1-603) (enzyme)”, in test [1], the fold decrease of FRET emission against WT PLK1 was in the range of 6 to 8 fold.
The substance “PLK1 Polo-Box domain (Flag- or Myc-tagged) (domain or fragment)” came in with an increase of co-precipitated PBD with purified GST-Bora added (lane 2) against none (lane 1) in test [2] of 60%.
In test [3], “full-length, wild-type PLK1 (Flag-, Myc- or V5-tagged) (from UniProt P53350 1-603) (enzyme)” returned a stoichiometry N of 2.
The substance “endogenous PLK1 of HeLa-PLK1–3xMyc cells (from UniProt P53350 1-603) (enzyme)” showed a stoichiometry N in test [4] of 2.
